Test results published in patent US7988958B2, “Enterococcus and Streptococcus strains and bacteriocins” (The United States of America as represented by the …, priority 2005, dated 2011).
Like-named read-outs stand apart in the source and are kept apart here.

Columns and labels:
[1] = Isoelectric focusing (pI); format: physicochemical; conditions: for pI of the band with antimicrobial activity: pure bacteriocin, gel overlaid with Campylobacter jejuni
[2] = test system: S. enteritidis 204; assay: Spot test; format: cell-based; conditions: for Inhibiting activity in Spot Test: crude antimicrobial preparation (CAP); for Inhibiting Activity, Spot Test: purified bacteriocin
[3] = test system: C. jejuni NCTC 11168; assay: SDS-PAGE gel overlaid with test strain; format: cell-based, Campylobacter jejuni; conditions: for Inhibiting Activity measured by SDS-PAGE: CAP, active band, C. jejuni NCTC 11168; for Inhibiting Activity SDS-PAGE: purified bacteriocin, C. jejuni
Protocol: (§1) CAPs and bacteriocins were electrophoresed in about 15% […] gel weight, about 1% SDS (9×12 cm) in Tri-glycine buffer. After electrophoresis at about 100 mA for approximately 4 hours, gels were fixed with a solution containing approximately 15% ethanol and approximately 1% acetic acid. The gels were then washed with distilled water for approximately 4 hours. To determine molecular weights of protein fractions, the gel was stained with a solution containing approximately 0.21% Coomassi Blue G-250, about 40% ethanol, and about 7% acetic acid. Washed gels were tested against three target bacteria, C. jejuni NCTC 11168, E. coli 0157:H7 904, and S. enteritidis 204 by the method of Bhunia et al. (Journal of Industrial Microbiology, Volume 2, 319-322, 1987; herein incorporated by reference). The gels were placed in Petri dishes, covered with 5% blood-semi-solid Campylobacter agar (about 0.75%) or semi-solid MPA, and seeded with cells of the test strains. Plates containing C. jejuni were incubated at about 42° C. for approximately 48 hours under microaerobic conditions, E. coli 0157:H7 and S. enteriditidis at about 37° C. for approximately 24 hours. Assessment was based on visualization of zones of the inhibited growth of the test strains in the presence of bacteriocins.

[4] = test system: C. jejuni NCTC 11168; assay: IEF gel tested for growth inhibition of test strain; format: cell-based, Campylobacter jejuni; conditions: for Inhibiting Activity measured by IEF: CAP, active band, C. jejuni NCTC 11168; for Inhibiting Activity IEF: purified bacteriocin, C. jejuni
Protocol: as §1
Specimens of bacteriocins were placed on IEF gels (pH approximately 4.4-10.0) (Novex, San Diego, Calif.). The gels were run at about 100V for about 1 hour, 200V for about 2 hour, and 500V for about 30 minutes in XCM II™ Mini-Cell (Novex). Gels were washed with distilled water for about 4 hours without fixation followed by staining with Coomassie Blue G-250 to determine isoelectric points (pI) of the bacteriocins and their ability to inhibit the growth of the test strains as presented in FIGS. 1 and 2 and in Table 2.

[5] = test system: Campylobacter spp. G-2; assay: MIC by agar diffusion; format: cell-based; conditions: Campylobacter spp. strain G-2
Protocol: (§2) The susceptibility of Campylobacter spp. to purified preparations of bacteriocins 760 and E50-52 was determined using strains isolated from broiler chicks as described above in Example 1. Antagonistic activity of the bacteriocins was assessed on the basis of minimum inhibitory concentrations (MICs) which were determined by agar diffusion. […] All the tested bacteriocins are highly antagonistic to the Campylobacter spp. strains.

[6] = test system: Campylobacter spp. I/U-1; assay: MIC by agar diffusion; format: cell-based; conditions: Campylobacter spp. strain I/U-1
Protocol: as §2

[7] = test system: Campylobacter spp. K-10; assay: MIC by agar diffusion; format: cell-based; conditions: Campylobacter spp. strain K-10
Protocol: as §2

[8] = test system: Campylobacter spp. P-21; assay: MIC by agar diffusion; format: cell-based; conditions: Campylobacter spp. strain P-21
Protocol: as §2

[9] = test system: Campylobacter spp. P-24; assay: MIC by agar diffusion; format: cell-based; conditions: Campylobacter spp. strain P-24
Protocol: as §2

[10] = test system: Campylobacter spp. P-27; assay: MIC by agar diffusion; format: cell-based; conditions: Campylobacter spp. strain P-27
Protocol: as §2

[11] = test system: Campylobacter spp. P-2; assay: MIC by agar diffusion; format: cell-based; conditions: Campylobacter spp. strain P-2
Protocol: as §2

[12] = test system: S. enteritidis 4; assay: MIC by spot test; format: cell-based
[13] = test system: S. enteritidis 237; assay: MIC by spot test; format: cell-based
[14] = test system: S. choleraesuis 370; assay: MIC by spot test; format: cell-based
[15] = test system: S. typhimurium 383/60; assay: MIC by spot test; format: cell-based
[16] = test system: S. typhimurium 320; assay: MIC by spot test; format: cell-based
[17] = test system: E. coli C600; assay: MIC by spot test; format: cell-based
[18] = test system: E. coli O157:H7 Y-63; assay: MIC by spot test; format: cell-based
[19] = test system: E. coli O157:H7 G-3; assay: MIC by spot test; format: cell-based
[20] = test system: Y. enterocolitica 03; assay: MIC by spot test; format: cell-based
[21] = test system: Klebsiella pneumoniae; assay: MIC by spot test; format: cell-based
[22] = test system: Staphylococcus aureus; assay: MIC by spot test; format: cell-based
[23] = test system: Staphylococcus epidermidis; assay: MIC by spot test; format: cell-based
[24] = test system: Pseudomonas aeruginosa 25583; assay: MIC by spot test; format: cell-based
[25] = test system: Proteus mirabilis; assay: MIC by spot test; format: cell-based
[26] = test system: Morganella morganii; assay: MIC by spot test; format: cell-based
[27] = test system: Helicobacter pylori; assay: MIC of purified bacteriocins and antibiotic by Spot Test; format: cell-based; conditions: H. pylori; 24 hours at 37° C., microaerobic
Protocol: (§3) The minimal inhibiting concentrations (MICs) of bacteriocins 760 and 50-52 and Methicillin were determined by Spot Test. Various concentrations of purified bacteriocins (μg/ml) in a volume of 10 μl was added to cultures of Staphylococcus aureus, Staphylococcus epidermidis, Pseudomonas aeruginosa, and Helicobacter pylori. The cultures were incubated for about 24 hours at about 37° C. under aerobic conditions for all but Helicobacter pylori which was incubated under microaerobic conditions.

[28] = test system: Pseudomonas aeruginosa; assay: as above; format: cell-based; conditions: P. aeruginosa; 24 hours at 37° C., aerobic
Protocol: as §3

[29] = test system: Staphylococcus aureus; assay: as above; format: cell-based; conditions: S. aureus; 24 hours at 37° C., aerobic
Protocol: as §3

[30] = test system: Staphylococcus epidermidis; assay: as above; format: cell-based; conditions: S. epidermidis; 24 hours at 37° C., aerobic
Protocol: as §3

Row | Molecule | IEF (pI) ([1]; isolated by Method A) | IEF (pI) ([1]; isolated by Method B) | pI of the band with antimicrobial activity [1] | Inhibiting activity in Spot Test [2] | Inhibiting Activity, Spot Test [2] | Inhibiting Activity measured by SDS-PAGE [3] | Inhibiting Activity SDS-PAGE [3] | Inhibiting Activity measured by IEF [4] | Inhibiting Activity IEF [4] | MICs [5] [µg/mL] | MICs [6] [µg/mL] | MICs [7] [µg/mL] | MICs [8] [µg/mL] | MICs [9] [µg/mL] | MICs [10] [µg/mL] | MICs [11] [µg/mL] | MIC of purified Bacteriocins and Antibiotic [27] [µg/mL] | MIC of purified Bacteriocins and Antibiotic [28] [µg/mL] | MIC of purified Bacteriocins and Antibiotic [29] [µg/mL] | MIC of purified Bacteriocins and Antibiotic [30] [µg/mL] | further results
1 | Bacteriocin 50-52: bacteriocin produced by Enterococcus durans/faecium/hirae NRRL B-30746 (strain 50-52); amino acid sequence SEQ ID NO 1 (TTKNYGNGVCNSVNWCQCGNVWASCNLATGCAAWLCKLA; listed as Enterococcus faecium) | 8.4 | 8.4 | about 8.4 | 12,800 AU/ml | 12,800 AU/ml | M.W. 3.9 kDa | +Band 1 | band 1 | +Band 1 | 0.1 | 0.05 | 0.05 | 0.05 | 0.05 | 0.1 | 0.05 | 0.8 | 0.8 | 0.1 | 0.4 | IEF (pI) ([1]; cultivation with inducer strain): 8.4; IEF (pI) ([1]; cultivation without inducer strain): 8.4; MICs [12]: 0.1 µg/mL; MICs [13]: 0.1 µg/mL; MICs [14]: 0.1 µg/mL; MICs [15]: 0.1 µg/mL; MICs [16]: 0.1 µg/mL; MICs [17]: 0.1 µg/mL; MICs [18]: 0.1 µg/mL; MICs [19]: 0.1 µg/mL; MICs ([20]; Y. enterolitica 03): 0.1 µg/mL; MICs [21]: 0.2 µg/mL; MICs [22]: 0.4 µg/mL; MICs ([23]; Staphylococcus epidermis): 3.2 µg/mL; MICs [24]: 3.2 µg/mL; MICs [25]: 1.6 µg/mL; MICs [26]: 3.2 µg/mL
2 | Bacteriocin 760: bacteriocin produced by Enterococcus durans/faecium/hirae NRRL B-30745 (strain 760); amino acid sequence SEQ ID NO 2 (protein, listed as Streptococcus cricetus) NRWYCNSAAGGVGGAAVCGLAGYVGEAKENIAGEVRKGWGMAGGFTHNKACKSFPGSGWASG | 9.5 | 9.5 | about 9.5 | 12,800 AU/ml | 12,800 AU/ml | M.W. 5.5 kDa | +Band 1 | band 1 | +Band 1 | 0.05 | 0.05 | 0.05 | 0.1 | 0.05 | 0.05 | 0.05 | 0.2 | 0.4 | 1.6 | 1.6 | IEF (pI) [1]: 9.5; MIC [12]: 400 µg/mL; MIC [13]: 200 µg/mL; MIC [14]: 400 µg/mL; MIC [15]: 400 µg/mL; MIC [16]: 200 µg/mL; MIC [17]: 100 µg/mL; MIC [18]: 1600 µg/mL; MIC [19]: 1600 µg/mL; MIC ([20]; Y. enterocolitica 03): 100 µg/mL; MIC [21]: 3200 µg/mL; MIC [22]: 1600 µg/mL; MIC ([23]; Staphylococcus epidermidis): 1600 µg/mL; MIC [24]: 400 µg/mL; MIC [25]: 3200 µg/mL; MIC [26]: 3200 µg/mL
